Reference: doi:10.1101/773283 (bioRxiv, 2020)
Values joined by “and” are separate entries in the source; they are usually repeats but may differ in a detail not shown here. Equal entries are not always repeated.

B1: human vinculin HV 1-834 containing the D1-D4 domains (domain or fragment, UniProt P18206-2 1-834, looked up)
chain: MPVFHTRTIESILEPVAQQISHLVIMHEEGEVDGKAIPDLTAPVAAVQAAVSNLVRVGKETVQTTEDQILKRDMPPAFIKVENACTKLVQAAQMLQSDPYSVPARDYLIDGSRGILSGTSDLLLTFDEAEVRKIIRVCKGILEYLTVAEVVETMEDLVTYTKNLGPGMTKMAKMIDERQQELTHQEHRVMLVNSMNTVKELLPVLISAMKIFVTTKNSKNQGIEEALKNRNFTVEKMSAEINEIIRVLQLTSWDEDAWASKDTEAMKRALASIDSKLNQAKGWLRDPSASPGDAGEQAIRQILDEAGKVGELCAGKERREILGTCKMLGQMTDQVADLRARGQGSSPVAMQKAQQVSQGLDVLTAKVENAARKLEAMTNSKQSIAKKIDAAQNWLADPNGGPEGEEQIRGALAEARKIAELCDDPKERDDILRSLGEISALTSKLADLRRQGKGDSPEARALAKQVATALQNLQTKTNRAVANSRPAKAAVHLEGKIEQAQRWIDNPTVDDRGVGQAAIRGLVAEGHRLANVMMGPYRQDLLAKCDRVDQLTAQLADLAARGEGESPQARALASQLQDSLKDLKARMQEAMTQEVSDVFSDTTTPIKLLAVAATAPPDAPNREEVFDERAANFENHSGKLGATAEKAAAVGTANKSTVEGIQASVKTARELTPQVVSAARILLRNPGNQAAYEHFETMKNQWIDNVEKMTGLVDEAIDTKSLLDASEEAIKKDLDKCKVAMANIQPQMLVAGATSIARRANRILLVAKREVENSEDPKFREAVKAASDELSKTISPMVMDAKAVAGNISDPGLQKSFLDSGYRILGAVAKVREA

Tests used:
[1] = target: full-length human vinculin (HV) (human) (UniProt P18206); experiment: ELISA
[2] = target: cysteine-clamped vinculin D1D2 Q68C A396C (human) (UniProt P18206); experiment: native gel or EMSA
[3] = target: human vinculin D1 subdomain (HV 1-258) (human) (UniProt P18206); experiment: native gel or EMSA
[4] = target: human vinculin D1 and D2 domains (D1D2) (human) (UniProt P18206); experiment: native gel or EMSA
[5] = target: human vinculin D1 and D2 domains (D1D2) (human) (UniProt P18206); experiment: SEC-MALS
[6] = target: human vinculin HV 1-834 containing the D1-D4 domains (human) (UniProt P18206); experiment: SEC-MALS
[7] = target: human vinculin D1 subdomain (HV 1-258) (human) (UniProt P18206); experiment: SEC-MALS
SEC-MALS = target: the molecule itself; experiment: SEC-MALS

Molecule	EC50 [1] [nM]	stoichiometry N [2]	stoichiometry N [3]	stoichiometry N [4]	also measured
IpaA derivative containing VBS1-2 (A524) (from UniProt P18010 524-633) (domain or fragment)	3.7	1	1	1	stoichiometry N (D1D2 per A524) [5]: 1 and 2
IpaA derivative containing VBS1-3 (A483) (from UniProt P18010 483-633) (domain or fragment)	6.1	1	1	1	stoichiometry N (A483 per D1D2) [4]: 1 and 2; stoichiometry N (D1D4 per A483) [6]: 1 and 2; stoichiometry N [7]: 3 D1 per A483; stoichiometry N (D1D2 per A483) [5]: 2
human vinculin D1 and D2 domains (D1D2) (from UniProt P18206-2 1-492) (domain or fragment)	–	–	–	–	stoichiometry N [5]: 3
B1	–	–	–	–	stoichiometry N (SEC-MALS): 3
